Protein production data for 7 sequences are collected here from a protein production outcome set (Wang et al. 2014).

The nature of the data set: label from the status in PepcDB records.
“MEQPMKPTVIITGASSGVGLYGAKALIDKGWHVIMACRNLDKTQKVADELGFPKDSYTIIKLDLGYLDSVRRFVAQFRELGRPLKALVCNAAVYFPLLDEPLWSADDYELSVATNHLGHFLLCNLLLEDLKACPDADKRLIILGTVTANSKELGGKIPIPAPPDLGNFEGFEAGFKKPIAMINNKKFKSGKAYKDSKLCNMLTTRELHRRFHQETGIVFNSLYPGCVADTPLFRNHYSLFRTIFPWFQKNVTKGYVSQELAGERVAMVVADDKFKDSGVHWSWGNRQQAGREAFVQELSEQGSDAQKAQRMWDLSEKLVGLV”: the protein production entry is “failed”.

On to “MLPPPPSASPAARENTDPGGHRADSGVSYSKIDPVGTFVRLLGLIAPAWQAVLGATLLGSGTIASNIGLMATAAFLIASAALHPPAGKLMLAIVGVRFFGITRAVCRYLERYVNHSITLGILGRLRVAFYRTLEPLIPAGLQGHHSGDLLSRAVADVATLENFYLRVLNPPLVALPVAAGVFLFLAHFGRTLALAWMGAFLAAGVIFPVGVTIVGRGVMRRQGEARAALNTALVDTVQGLADILVFDHGRQQQEYIATLDRQYLHLQGRKAGLNGLANALTSLASNLALWAVLVLAIPLVNRGQIDGVYLAMLALTAAAALEAAKPLPMLFPHLEGSLAAARRIFALSDTRPAGDPAGPVPHPRDFSLRVQGLRFRYGPGEPPALDGIDFDVPSGARIAIVGPSGAGKSTLVNLLLRFWDYEEGAILLGGYDLKAYPPEELQRFIGVVAQPTHLFHATIAENLLLARPDATREEMERAAREARLHEFIQVLPRGYDTLIGEEGFKLSGGQRQRLAIARALLQNAPILILDEATTGLDAVTEREVMDSIRHLMEGRTTLVITHRLVGLEDMDKILVLDRGRLVQQGRHAELLRQEGLYRHLWQLQQEALP”, for which the protein production result is listed as “failed”.

For the sequence “GQTCARPMCIPPSYADLGKAARDIFNKGFGFGLVKLDVKTKSCSGVEFSTSGSSNTDTGKVTGTLETKYKWCEYGLTFTEKWNTDNTLGTEIAIEDQICQGLKLTFDTTFSPNTGKKSGKIKSSYKRECINLGCDVDFDFAGPAIHGSAVFGYEGWLAGYQMTFDSAKSKLTRNNFAVGYRTGDFQLHTNVNDGTEFGGSIYQKVCEDLDTSVNLAWTSGTNCTRFGIAAKYQLDPTASISAKVNNSSLIGVGYTQTLRPGVKLTLSALVDGKSINAGGHKVGLALELEA”, the protein production result was “failed”.

As for “MIKVLDQNTINKIAAGEVIEKPSSVIKELVENSIDSGATAITVEVKGSGLSFLRVTDNGSGIKKDEVKLAFLRHATSKLVTVEDLLSISSLGFRGEALASIASVAQVEMITKTADDVTGLRYQIHGGREISSEEIGAPGGTTIIVRNLFYNTPARKKFMKTDLTEISYIYDLMCRICMSHPKISFKFISNGTDKLFTSGNGKLRDIIYHIYGRDITSNLLEINAENDYMKISGYIARPCISRGNRSFEGYYVNHRYIKSAVLTKAIEDAFRTFVMIHKFPFTEINFQVRPDLLDVNVHPTKMELKFANSQDIYSFTYNAIRETLLFKELIPDVAPGKDSKPETYKQRNVGDAPEAFENKRREALVGPVAQAKAAPTHMVTDNSLVKSENAPVLDQRQMKPERASTSESQARPEGTSTALQQPLKPDNIPAPVRPIIDVIDETKDTNTSAEKKSDNNTYEQPQKSGYSYSGRHQEIPGSKVAESKASYMAVDDRKYVQQNMFQEKFLTKEARAKHRLIGQLFKTYWLIEYDGKFFIMDQHAAHEKVKYEELMENYKNKKIYSQYLMPPAVVTLSATEIEFLHENMETFEALGYQIENFGGREFKLNAVPDNLFGLDGRELFIDFIADASSSAKKVTIDVFIHKLSTMACKAAIKGNTEISFKEADALIDQLLKLENPYTCPHGRPTVISMTEAEIEKKFKRIV”, the protein production result was “failed”.

On to “MVDQQDTFAEYFKNWYIFYKKPKVSKVTLNRYQYTYNVINEYFGNKLLKDITRANYQKFIVKYGQNHSPNTMKMINNCIKACVKNAVYDEEIKKDFTYNIELISNRLEHHHHHH”, for which the protein production result is “failed”.

For “MGSTTGSMLTAISDTHGTDNHRLTGRTLDAVREADHVLHAGDFMTEQVLDAIDAESDELTGVVGNNDRPAVRARLSDVATVSWEELTIVVVHGHEHTETALGMLARQENADIVVVGHSHKPVLTDFGGWTLVNPGSYADPRRYQPAHAELDVMAGDVRVRLRSPDGTPISTTIVERLEHHHHHH”, the protein production entry is recorded as “failed”.

Consider “GDAPPEIHAIYTDITERTRLEETLTYRSELESKIVDISTRFINTPIDDLDREIEAALQAIGAFVDADRSYVFLFDDEAATMSNTHEWRTEATASTQSRLQNIPYAETPWFMARMRRREGPLRVPRLEDLPPDAAGLRQRLEAGNVQSLLVLPMLNDQDLIGFVGFDAVRQQRDWDADTVMLLRVLSDAISNALQRKTAEKEMLAAKEEAEDANRMKSVFLANMSHEIRTP”, for which the protein production result was “not failed”.
